Reference: publication PMC2888265
Like-named read-outs stand apart in the source and are kept apart here.

Legend:
Assay in all cases: crystal structure
[1] = molecular target: Teg12 (uncultured bacterium (DNA extracted directly from desert soil))
[2] = molecular target: Teg12 (uncultured bacterium (DNA extracted directly from desert soil)); remark: listed apart in the source
[3] = molecular target: Teg12 (uncultured bacterium (DNA extracted directly from desert soil)); remark: listed apart in the source

Measured: stoichiometry N

Teg12 (enzyme)
2: all assays above
